Reference: WO2022210830A1 (dated 2022)

Assays:
Assay in all cases: cell-based or functional assay
[1] = target: Omicron strain spike protein on pseudotype virus (SARS-CoV-2, UniProt P0DTC2 14-1273)
[2] = target: Kappa strain spike protein on pseudotype virus (SARS-CoV-2, UniProt P0DTC2 14-1273)
[3] = target: Delta strain spike protein on pseudotype virus (SARS-CoV-2, UniProt P0DTC2 14-1273)

B1: 0210-28K (antibody, V domains shown)
VH: QMQLVQSGPEVKKPGTSVKVSCKASGFTFSISAVQWVRQARGQRLEWIGWIVVGSGNTNYAQKFQERVTITRDMSTSTAYMELSSLRFEDTAVYYCAAPYCGGDCSDGFDIWGQGTMVTVSS
VL: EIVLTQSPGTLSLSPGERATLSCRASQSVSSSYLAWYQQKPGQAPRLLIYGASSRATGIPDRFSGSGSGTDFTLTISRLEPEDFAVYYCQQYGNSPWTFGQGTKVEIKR
With B1 the “IC50, inhibition of pseudotype virus infection (luciferase)” value [1] was ~0.2 nM, the “IC50, inhibition of pseudotype virus infection, 1st experiment” value [2] was 0.0108 mg/L and the “IC50, inhibition of pseudotype virus infection, 2nd experiment” value [2] was 0.0203 mg/L. The “IC50, inhibition of pseudotype virus infection, 1st experiment” value [3] was < 0.0075 mg/L and the “IC50, inhibition of pseudotype virus infection, 2nd experiment” value [3] was 0.0121 mg/L.
